Experiment [1] has as its target HIV-1 protease, bait PR_v1 (HIV-1 isolate YU2) (UniProt P35963). In words: cell-based or functional assay.
For experiment [2], the target named is HIV-1 Integrase (IN), bait IN (HIV-1 isolate YU2) (UniProt P35963). In words: cell-based or functional assay.
Chain of HIV-1 Integrase (IN), bait IN (HIV-1 isolate YU2) (P35963 1148-1435 limits assumed): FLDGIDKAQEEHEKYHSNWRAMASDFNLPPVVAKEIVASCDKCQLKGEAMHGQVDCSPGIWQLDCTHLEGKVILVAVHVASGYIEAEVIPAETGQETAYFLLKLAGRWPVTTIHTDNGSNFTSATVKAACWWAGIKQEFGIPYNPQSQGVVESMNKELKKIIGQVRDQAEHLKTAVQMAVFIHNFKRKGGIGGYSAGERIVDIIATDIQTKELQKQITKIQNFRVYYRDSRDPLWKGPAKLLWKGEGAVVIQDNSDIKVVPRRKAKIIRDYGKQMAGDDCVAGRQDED

Chain of HIV-1 protease, bait PR_v1 (HIV-1 isolate YU2) (P35963 489-587 limits assumed): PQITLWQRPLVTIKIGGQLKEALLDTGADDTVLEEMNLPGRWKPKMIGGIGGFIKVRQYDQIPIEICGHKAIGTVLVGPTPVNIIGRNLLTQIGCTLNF

For the substance “Human AIM1 (prey030612), Absent in Melanoma, prey fragments, Q9Y4K1 1-2131”, in experiment [1], the inhibition of HIV-1 infection (p24 antigen in supernatant) after siRNA against AIM1, HeLa cells with CD4 and CCR5 amounted to 30%.
On to “LEDGF p75 isoform (PSIP2), prey fragments (from UniProt O75475 340-417)”, for which the inhibition of HIV replication (p24 antigen in supernatant) after siRNA against LEDGF, HeLa cells with CD4 and CCR5 in experiment [2] was 84%.

Source of the values: patent US20060034860A1.
